From the NTF2 design screens of Basanta et al. (2020)

Assay: protease stability score; higher = more stable; yeast display proteolysis, trypsin and chymotrypsin;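 note: relative to predicted unfolded state with 0 unfolded-like and 1 meaning tenfold more protease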

Sequence | protease stability score
DEEHKTSYKALEQLIRVLRTGDERLMSELADPHVRMDFDGRRHHGRESMKREFLELGIDHVHLDRWNLIGNKVLSDGHMRFDGRSMRVEIIAYKVDGRWVLEEVRFE | 0.03
SEHEELLERIAEFVMKSWITGNEELDERLADPDARSIVNGKHLHGRELHSEFLRKLLEQLRIHHIHMTDRRVFDGRAIEHSVVHGEIDGVKVTVEVHIRVVVINGRLKSLRIEIR | 0.149
SEDDRDSKEAKHLLHELIRTGDEDELVKLLDPNMIIIVGDKEYIGWEQAVRLLRELNRRFDHVELRFRDIEIQGEWVDTDIELIYRFDGRETRIDTRFIAYKVDGRWFNHHIEIK | 0.582
TQEKREADHSNKLEEHSHQTGDERLLTELADPHVKIFVDGQELHGREEFLRWVEEAGVKHFHVDHVRYQGDKLFVHGHFNINGREREVRLIYRKVNGKWYLHQMDIN | 1.23
SEMHEATEHLLKLWVHIFETGNEKWFNKLADPDYRSRILYGDKELKSHGRENVVEVLYRWLKHFGFDHVRLEDEHIQGNKVHLHFRVQVNGRHHELDLNIDMVNGKIRHVEVILH | 1.5
HDDEEIIKREIDFFLEVLLTGDWRHLNELLDPHARLEIGDKRFHGREAVIKEIRTFIERFGVDHSEIDTVNIQGEKAEYKFTLKVGDKRHELHITMTKINGRWYITEVKFS | 1.79
DEKTEQSREIIELLLKALQTGDEDTLTELLDPHVKIHIGDKDYHGREEVSRLLQEFWDRFKNARIEIHDYRDINGRVHVDLRHVVGDKTYTSKWNILKVNGRWYIEQIHVH | 2.07
SEDEEDFERAIKLYETLNATGNEEEYSKMVDPHVKMHFNGVDFHGREKMVEVVHKLGVKHLETKSIRIIGDFLRSRFENDVDGRKIEQEVQMLKINGRWLIKYISFH | 0.706
SEEKKFSMEMLELLLHLLLTGDWDKLNKEFDPDYRLIIGDKETIGRESVRERLRLEIERIDHIHDVKIEDWKVQGDKAHIRLRVDGNIDGKRKEFESELIVIIVDGRMKSVRIIIK | 1.97
DDERRHTEKVLELWTRFLYTGDEHRMSELLDPNTQLRVGDKDLHGWHLFVHFISELIRKLGVDHLEVELKHADIINGRAELHVKFHFHTENHHTTINIIFFYEKIDGVWLIKSIEIK | 2.04
DEDHELVEKFLRQMIFAQITGDWRFMMHLADPHVRYEVGDKHYHGREDMERVFREWRVNSIRIEHIRIIGDKAETHQDEDGHIDGRRIELHVRLILLKVDGRWIVHNSHII | 1.37
SELEHLTEEVAERVLRVLLTGNEHWLDRLLDPHVRLHVNGQDFHGRENVKRWMHELGVDHREIEIEDYRSINGVFIVWGHIRIHQGEKEIKFKSEHIFVVFNGKMQSMEIRIL | 1.58
DTDTHTVKEFIRALVESSRTGDEDLLRDFADPRMRIDIDGRIFHGRENALRWLSELRIEEVRIDHVTIVDGRLHVDVTYRGDINGQHTETRVILIILKVNGRWRMHYIEVR | 1.55
SEDKDNAQDLLHHVVKAWNTGDEDLTRKLFDPHVRLDINGVEIHGWRDLLRVLRELRLRVEMRVHDADFINGVIHLYTTVHSHIHFNGVDFHFHHETRMIILKINGRWLVHSITYL | 0.675
DDHETEMIHWAELFAELIRTGDEEKLDKLLDPNVKIDINGRKFHGRESMRFALKHLRIHHVEIDDLKVQGDKSFWIGFVEGQIDGQRDRRHSTIELLLVNGRIKSVQLEFR | 1.61
DEDEKLLEKIAREFFEALKTGDEDWLTELADPHVKLDVGEWDTHGMEEIKNVLKILLHELGFKHRELHDMDIVNGVNVIDVIIRINGKERKVTIIIVTIDGRIKSIHHRVN | 2.15
DEEHHELHKMFEEMINKWITGDWEYIVKLLDPHVKLEVGDKRHHGWKQYVLFLEEFMREFKNATIKIHDVTHVDGVVIINMKFHFNGKDIDTTLYLHIVNGRLHDERIEVE | 1.74
SESEEHSKKLFDTWVHSELTGDERSLLHLMDPHVKFIIDGREIHGREKASEFLVKLREHLGAEIHDYRVRDMKIQGEKVIIHSELDVQVDGVRHHERLVLIMHKIDGQWSVESVKRV | 1.08
DEEREDVETHLRVLYDLILTGDEEDIRNLLDPHVRLDFNGKDIHGMERVSHHMRELRIERLEIKRWDVVNGRVHMDLHIVFHYGDKRRDTEVHVIMLKIDGRWHLESIHIK | 2.21
TEIEKLLDEIVKHFLWAFLTGDWDKVAKLADPNTKSVWNGVDLVGMHLNEHVLEMLIRRYDVIHSIHLRSYRTQGDKLHVDSELNMIQGDKEETVRVRITLHVVNGRLKSIEVRIE | -0.002
DEHDHILKRLSEELLHMMETGDEDALAELFDPHARMEYNGQEIHGRRDVERIRREILEKLGVDKIHTEVKEERFVGEKLEVHTHLHVDGVHFTVRIHWVKFNGRWVIRTLHIE | 1.38
SEEHEEAEHWVRLFIEFMLTGDFDEYRQLMDPNDYIEVGDKSLIGMENWHHLLNRVKNLTIRVKRVRVRVVNGRIHVEMDVRDIINGQEVETRIEMVAVKVNGRWLLKTVHLERE | 1.74
KEHEEILHHLAELFFENLLTGDWRLLTELMDPSARVHIGEWRSHGREHASRVMLEEFRQLRVRDVKLTDLKVIDGRMEIDTRMRIEVDGREHIHTIHIRIYIYNGRMDEIHLEVR | 0.125
DEEEEYHRRVLETITRARLTGDEDLFRKNVDPDVKIEVHVGNFRFHDVGWEHLRRWIEELGFEIHHIEIKHEHVINGVMHQESERDGTFNGVRDRVKVRFIYFIVNGRIKHIRFEVE | 0.781
SEEDRLHEEWIEESFKIWETGDEERFWKMVDPEYLFRLDIDGVHLESHGRENAREHFREQLSRLGIKYLDLHEIHLQGNKAILDVRVNFNGQERHVIIRLLIIDGRIKKREIEIR | 1.41

Sequence | protease stability score
SEEEDHIRRAIERFSKDQETGDEDSIRELLDPHVRMHVDGQELIGRDLILKFWSELRVHHWEMHSVRVVGDYVDFDVTLDMRVGDKSHRIKATLIILKIDGRWILKLVIID | 1.19
DETEHHAREMAELLLHVILTGDEHLMERLIDPDVKLHSFFNGRQFHRIGMEELKRYLEEWRREIRLKDVRIRQFEVQGDKFRLDMEVEGNINGRDNVTKTELIIITVNGRLHEIDIRIE | 2.1
DEEEESYRIAEHLFREVMETGDERISEHLADPRTRFQVGDKTFHGMDEWREVLHRMLVEIRMHDVKVHDVKSIGDKLIIDGYLYIEINGRRTSIYTELYWLKVNGQWRLHYITMH | 1.12
SELEKLSHELARLLIENWETGDWKRFIDLIDPHAKLHIGDKDHIGREEITRFLKEVWHRFDHIEMRIHHIKVIGNYAHSDGEMIININGQERRHDVEIIVVVVNGVVHSVEIHIE | 1.9
RELEESSKFFLKLIIEAFLTGDERTNSELADPNVRIHIGEFHYHGREEFSKLMEELVKRVKNATVINDIDHIEVQGEKIKMDGRLILIYNGRIFETRTSLIVVKIDGRWLIESVHVK | 1.48
TEEEEILHEELRRHKEALETGDEDRLRHLIDPRARMDVNGREFHGMEHIVHFLVEFLLKFKNVRFEIKDFTKIGEYIYVDIHIIVDGRRHHMTVVALKVDGRWRNRHLHID | 1.18
SEHEHIAEKMSELLREIVETGDFEQLERLADPHVKLNVDGRNFHGMERFRELKERIRREFGVDHIHVEVERVEVIDGVVINHTKLIIEQGDKRRESRTTLIINKVNGQWRLDSVRVE | 0.488
DEEEEHSKLADEEMLHNLLTGNEEHINKMADPNVRIVIGDKELHGMERWREEMRFFKGARIEIKRSRIFTQGDKMHSEVDGTLNFNGRRVEILIVLVVRKVNGRWRIEMISYHIV | 1.57
DEEEKESEEAFRIHKEVLETGDEHLIERMLDPNTRIIIGDKNIHGRESALETMIKLGVKHVHIRRWNDFNGRAENDVQMRFNGRTHEVHLFALKFNGRWLMHEIEFR | 1.25
DEDEHIERHLFEELIELLRTGDFRRLFELIDPHARFVVDGRDHHGMEYAMRERLRRLEEAGVKHIRIRRKDVINGRLHIHSSVNVNGVEQEERIIIEKVNGRWTITEIVID | 1.26
SEHEEHLKHISELMVKLFLTGDEELINHLADPDTRLNINGVHFIGREHAVKASKDFWDELGVNHIEIEDRKVINGRVTMTGHVHVGDKYRRTQNYLVVVNGRLKNVEWRID | 0.806
EEDFRLVDKFIKDFWKSFRTGDEDLFKKYLDPHVQLEVNGQEIHGREQLSRVLVELIIEFGVDHVEFRLHDWHIYDGQAEHHTHVRLKYGDKNVRRTLHIFMLKVDGRWILESMVIR | 1.26
SDEEDHWHELLERIVRLLMTGDEKTLNKLFDPNMRIIIIIGDKEIRLHGRHKFEKWVRDFLNKFKNVKIEIDDHRAVNGVVQIDGTLFIDGREHHVENNFFIVNGRITEIQIHIK | 1.28
DEHKREMRILLQLWREFWLTGDWRNILKNADPDYRLTVNGRDFVGMELATEFLEIILRHLRVKHIILRHEELVDGVLHVEGEIDGNIDGKETIHENEINMFVYNGKIHEVELHLK | 1.36
DEEEKIMYHIFEVLIKLFLTGDFDTFTKMLDPNVYWNINGQENHGRDKVREALKLWIERFKNRTFDIKITDMRVQGEKTTLHTRLHVEVDGRHLEHDTVIILIVVDGRIKTIVIHIH | 2.51
DEEHRVIHNAVRILLEAIRTGDEETLRRLLDPHTRIEIGDKELHGWKDAIKFERDVWEILGIDHSEIRIKHVRIIGDKIEVEGEIINYVNGKEIVLDTNLIMRKIDGRWVFKSRKVN | 1.23
TEMEEWSRLAIEIWEEVVRTGNEHDMARLLDPNTRLIVGEKEYHGMETVMHLLERIKNLVLRRFHIEHVRLQGDKVEIDARSVHHVNGRDIETTLKIISFKFNGRWTIRQESII | 0.614
SEEEELAMRIAREVLELWYTGDEDRLTELADPNTRVIFQYGDKEISFHGREWYSKIMLEWRIERVDLRSERAIGDKYELDVHFVGHINGKRHNYRFHIHMLVVNGKLKNIEVRVK | 2.2
SEHEEELHKFFEEFLKAVETGDWRRLMELIDPHARLHIHQGEKEDHDHGRKFLKEFLKRYPNLRIQVTSLRIDVIDGVAIIILRGHDDVNGVELHSTIRIVVTKVNGQWRVEEVEIRIR | 1.38
SEDKEEAEEFVRIFNEALITGDFEFIEHLADPNVKYRQGEYHEHGRESLSHMFRFLGWSNVKIHLRHIKFYGDKIEVHGEVRIDGRTHWVNSYITKYDGRWYLTSLQIE | 1.21
DEDTDWIREMHRRHTEALRTGDEDTLRDLMDPHVRIFQGDKIHIGMHDLAKFLKEWRIKEIRVDIKHIESQGDKLRFSGDVEVHFEFNGKEVDLKLKALIVIVKINGKWVFKEIHHI | 0.862
DEEKRLLEEAARHMVDSWRTGDEEVIERMMDPHDKLILYINGVNFDLHGREIVSRWIKEELDEIRIRINVEDIKVFNGVAFVDGELRVEINGREKRVKEEIILFIIDGRLKSHEIRRH | 1.23
DELEKIVEDFLRVLLEHLHTGNWEYLKEYFDPDVRIKIGDKELHGREDFVRRLREWLSRIKNATFEIEVDDNKVQGDKAILHTKVIIRVGDKLIELKTHIIVNKINGVWMVRSQSVE | 1.46
TELDELALKLLEQLIELEATGDWKTLLKLFDPNTRVDIEVGDKKIRLHGREDVIEWVKTVYEHLRFEIRIHSSDAIDGRVHVSTKLIIRIDGRTIEVETHLRVIMIDGKIHEVNTHVH | 1.43
DEVQRDAEEFWRLLVEALVTGDEDLWRKLADPHMRLDVNGVEIHGMEHYLKRIIEEMRRLGVELKDFRLHDVDIQGNKMHLKTHIDGRVNGQKNTRREEYVITKIDGRWQLESIKVH | 2.04
